The target in test [1] is T1, human Gal10-His (human, UniProt Q05315 2-142, limits assumed).
T1 construct: also called hGal10-His; human Gal10-His tagged; not shown: His tag
T1 sequence: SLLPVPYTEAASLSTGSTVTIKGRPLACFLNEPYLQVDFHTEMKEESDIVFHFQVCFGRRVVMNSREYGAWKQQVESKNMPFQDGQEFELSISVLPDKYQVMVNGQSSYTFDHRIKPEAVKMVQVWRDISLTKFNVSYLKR
In words: SPR Biacore 3000, purified hFab on captured Gal10-His.

For test [2], the target named is T1, human Gal10-His. Kind of test: SPR Biacore 3000, Fab periplasmic extract on Gal10-His-coated CM5. The method, then: The binding properties of the Fabs (periplasmic extract) to human Gal10-His were analyzed by SPR with a Biacore 3000 instrument. For this purpose, the diluted periplasmic extract was applied on a CM5 chip coated with human Gal10-His. As a positive control, a 20 nM injection of the purified g7B07 clone in the human Fab backbone was included at the beginning and end of the run.
The binding capacity of the Fab periplasmic extract was analyzed by SPR technology using a Biacore 3000. Briefly, diluted periplasmic extracts were injected on CM5 chip coated with 2500 RU of Gal10-His. The amplitude of the binding (Rmax), the dissociation (off-rate) of each clone, as well as the off-rate fold change compared to the controls (g7B07 and g7B07_N53A) are indicated. Clones g20H09 and g23H09 had similar or better off rate compared to the control g7B07 (Table 10). The randomized part of the CDR2 sequence is underlined (Table 10).

The target of test [3] is T1, human Gal10-His. In words: SPR against T0 reference; sample 4 weeks at 5 C, then nebulized. The method, then:
(§1) The functional active concentration of the candidates was then assessed by SPR on a Biacore 3000 instrument (FIG. 4). All samples were evaluated with methods meeting the standard qualification criteria. Aliquots were tested at predefined test concentrations against titration curves from reference samples (T0, −80° C. storage) and in the presence of quality control (QC) samples covering a range of 70-130% relative activity (% RA) towards the reference material.
(§2) comparison/reference ⁽¹⁾ samples correspond to aliquots kept at +37° C. for 4 weeks ⁽²⁾ samples correspond to aliquots kept at +5° C. for 4 weeks prior to nebulization. In brief, samples were nebulized with an Aerogen Solo active vibrating mesh nebulizer that converted a drug solution into an inhalable aerosol. Three different devices for each time-point were used per clone and results are reported by the device (nebulizer) serial number. In case of device fouling, indicated by longer nebulization times […]

Test [4] concerns the target T1, human Gal10-His. In words: SPR Biacore 3000, hFab on human Gal10-His captured by anti-His CM5. For orientation: SPR reads the build-up and loss of mass on a sensor chip optically.
The target in test [5] is T2, cynomolgus Gal10-His (WGS isoform) (cynomolgus).
T2 construct: also called cynomolgus antigen
Kind of test: SPR Biacore 3000, hFab on captured cynomolgus Gal10-His (WGS); column head prints (M), the text gives nM. Summed up:
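Fab binding measured by SPR on Biacore 3000, with His-tagged human or cynomolgus (WGS isoform) Gal10 captured on an anti-His antibody-coated CM5 chip. Clones applied either at two concentrations (cynomolgus only) or as a serial dilution.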

Test [6] addresses T1, human Gal10-His. Kind of test: SPR against T0 reference; sample 4 weeks at 37 C. How it is done: as §1, §2
Test [7] has as its target T2, cynomolgus Gal10-His (WGS isoform). In words: SPR on cynomolgus Gal10-His (WGS isoform).
The target of test [8] is T1, human Gal10-His. In words: SPR slope against calibrators on captured Gal10-His; T0 sample.

In general, koff refers to the first-order rate constant of dissociation. The low end stands for a long-lived complex, the high end for a short-lived complex. Broadly, the kon is the rate constant with which the complex forms. For orientation: Kd means the equilibrium constant for the complex coming apart. Higher therefore signals lower affinity.

B1: g23H09 (Fab) (Fab, V domains shown)
VH: EVQLLESGGGLVQPGGSLRLSCAASGFTFRSYDMSWVRQAPGKGLEWVSAIAQFQHWTYYADSVKGRFTISRDNSKNTLYLQMNSLRAEDTAVYYCATTHGIGTLGFGSWGQGTLVTVSS
VL: SYELTQPLSVSVALGQTARITCDGNNIGSKSAQWYQQKPGQAPVLVIYADEYRPEGIPERFSGSNSGNTATLTISRAQAGDEADYYCQVWDGSAAVFGGGTQLTVL
notes: same VH/VL
Consider B1, for which the “fold better affinity than g7B07” value with human Gal10-His [1] stood at 2.8 fold. For the same molecule, in the test with human Gal10-His [2], the “Fold off-rate compared to g7B07” value was found to be 0.4 fold and the koff is 0.0027 s⁻¹. The “% relative activity by SPR” value in the test with human Gal10-His [3] turned out to be 119%. Also, in the test with human Gal10-His [4], the “Amplitude R0” value came out at 722 RU, the koff was 0.0031 s⁻¹ and the kon came to 590000 M⁻¹ s⁻¹. Binding in test [5] was characterised by a dissociation constant (Kd) of 9.9 nM. Moreover, the “% relative activity by SPR” value with human Gal10-His [6] turned out to be 93%. For the same molecule, the “fold better affinity than g7B07” value in test [7] amounted to 7 fold. In addition, in the test with human Gal10-His [8], the “% Relative Activity (RA) on Biacore” value stood at 98%.

For the origin of these results see patent US20250059285A1 (ARGENX, published 2025).
